Test results as given in PMC3376730, “Crystal structure of Caulobacter crescentus polynucleotide phosphorylase reveals a mechanism of RNA substrate channelling and RNA degradosome assembly” (Open Biology, 2012).

B3: Caulobacter crescentus polynucleotide phosphorylase (enzyme, UniProt B8GWZ0 1-712, looked up)
chain: MFDIKRKTIEWGGKTLVLETGRIARQADGAVLATMGETVVLATAVFAKSQKPGQDFFPLTVNYQEKTFAAGKIPGGFFKREGRPSEKETLVSRLIDRPIRPLFVKGFKNEVQVVVTVLQHDLENDPDILGMVAASAALCLSGAPFMGPIGAARVGWVDGAYVLNPTLDEMKESKMDLVVAGTADAVMMVESEIQELSEEIVLGGVNFAHQQMQAVIDAIIDLAEHAAKEPFAFEPEDTDAIKAKMKDLVGADIAAAYKIQKKQDRYEAVGAAKKKAIAALGLSDENPTGYDPLKLGAIFKELEADVVRRGILDTGLRIDGRDVKTVRPILGEVGILPRTHGSALFTRGETQAIVVATLGTGDDEQFIDALEGTYKESFLLHYNFPPYSVGETGRMGSPGRREIGHGKLAWRALRPMLPTKEDFPYTIRLVSEITESNGSSSMATVCGSSLAMMDAGVPLVRPVSGIAMGLILEQDGFAVLSDILGDEDHLGDMDFKVAGTSEGLTSLQMDIKIAGITPAIMEQALAQAKEGRAHILGEMNKAMDAPRADVGDFAPKIETINIPTDKIREVIGSGGKVIREIVATTGAKVDINDDGVVKVSASDGAKIKAAIDWIKSITDEAEVGKIYDGKVVKVVDFGAFVNFFGAKDGLVHVSQISNERVAKPSDVLKEGQMVKVKLLGFDDRGKTKLSMKVVDQETGEDLSKKEAAAEEA
notes: polynucleotide phosphorylase, pnp gene (CC0034), amplified from genomic DNA of C. crescentus strain NA1000 with primers from the start codon to the stop codon; Two alternative constructs were made (GST-PNPase from pGEX-6p-1, GST cut off with PreScission protease; 6xHis-PNPase from pET-DUET); the two tags are not on one chain; also called PNPase; C. crescentus PNPase; source: E. coli, purified …

Columns and labels:
[1] = target: B3; test: native gel or EMSA; approximate fourfold molar excess of GST-peptide mixed with PNPase, 20 mM Tris–HCl pH 7.5, 200 mM NaCl, room temperature 10 min, 8 per cent non-denaturing PAGE; settings: both partners purified
[2] = target: B3; test: crystal structure; apo-PNPase co-crystallised with the peptide at 2 : 1 molar excess; rhombohedral (R3) and hexagonal (P6_(3)) forms, sitting drop, 18°C; settings: both partners purified
[3] = target: the molecule itself; test: as above
[4] = target: T1, PNPase (polynucleotide phosphorylase) (Caulobacter crescentus, UniProt Q9AC32 1-712); test: X-ray crystallography; co-crystallized with apo-PNPase; same cell and space group (P22121) as endogenous RNA complex; Crystals of RNA-bound PNPase: 24% w/v PEG 3350, 0.1 M bis-Tris pH 5.5, 0.1 M ammonium acetate, 18 C; settings: protein: recombinant; tags: 6xHis N-terminal (pET-DUET) or N-terminal GST (pGEX-6p-1) removed with PreScission; chain copies: 3
T1 sequence: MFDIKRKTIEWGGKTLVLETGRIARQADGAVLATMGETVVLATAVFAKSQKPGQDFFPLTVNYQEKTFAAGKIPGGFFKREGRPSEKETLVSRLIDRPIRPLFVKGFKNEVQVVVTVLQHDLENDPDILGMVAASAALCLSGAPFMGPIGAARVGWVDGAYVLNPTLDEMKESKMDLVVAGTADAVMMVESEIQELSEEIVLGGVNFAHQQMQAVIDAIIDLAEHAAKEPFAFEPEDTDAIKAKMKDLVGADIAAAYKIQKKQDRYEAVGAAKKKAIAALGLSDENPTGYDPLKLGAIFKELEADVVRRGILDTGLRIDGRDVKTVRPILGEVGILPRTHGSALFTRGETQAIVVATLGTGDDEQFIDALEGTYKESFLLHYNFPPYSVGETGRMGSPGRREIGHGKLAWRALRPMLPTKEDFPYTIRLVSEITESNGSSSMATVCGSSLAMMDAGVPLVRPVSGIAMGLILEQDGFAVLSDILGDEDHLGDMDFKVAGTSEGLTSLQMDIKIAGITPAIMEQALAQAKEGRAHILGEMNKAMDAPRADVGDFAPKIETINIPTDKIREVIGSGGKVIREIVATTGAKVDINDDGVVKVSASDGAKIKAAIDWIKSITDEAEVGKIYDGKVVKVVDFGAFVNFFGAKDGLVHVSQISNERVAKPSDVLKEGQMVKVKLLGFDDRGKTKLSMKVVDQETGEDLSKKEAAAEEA

B1: GST fused to the PNPase recognition peptide of RNase E (TAPPEKPRRGWWRR) (peptide)
chain: TAPPEKPRRGWWRR
notes: C-terminal PNPase recognition peptide of C. crescentus RNase E, encoded by the 3' end of the rne gene (cc1877); Cloned in pGEX-6p-1 through BamHI and XhoI; also called GST–GWW; GST–GWW peptide; source: E. coli, purified (glutathione sepharose); not shown: GST, N-terminal, kept
[1]
  binding result: binds

B2: C. crescentus PNPase recognition peptide from RNase E (EKPRRGWWRR) (peptide)
peptide: EKPRRGWWRR
notes: last 10 amino acids of C. crescentus RNase E; also called GWW peptide; RNase E recognition peptide; source: synthetic peptide (Cambridge Research Biochemicals)
[2]
  binding result: binds

## B3
[3]
  stoichiometry N: 3

## GUUUAUUGCCGUUCUUGUUAUAUGCCUU (ssRNA) [27mer MicC portion RNA]
[4]
  binding result: binds
